Patent US11571459B2, “Methods for treating cancer using PS-targeting antibodies with immuno-oncology agents” (ONCXERNA THERAPEUTICS, INC., priority 2017, dated 2023)

Legend:
[1] = system: previously untreated locally advanced or metastatic non-squamous NSCLC; experiment: Phase II (PPHM 1001) paclitaxel/carboplatin with or without bavituximab; format: in vivo, human; settings: bavituximab given with paclitaxel/carboplatin
hepatitis C virus (HCV) = experiment: Phase Ib escalating repeat-dose study in chronic HCV; format: in vivo, human; settings: for viral load: Phase Ib
Experimental: Bavituximab was first evaluated in Phase I, open-label, dose escalation studies and Phase Ib, open-label, escalating repeat-dose studies in patients chronically infected with hepatitis C virus (HCV). […] Doses of 0.1, 0.3, 1, 3 and 6 mg/kg were administered in Phase I (30 patients; successive cohorts of 6 patients), and doses of 0.3, 1, 3 and 6 mg/kg were administered in Phase Ib (24 patients; four cohorts of 6 patients).

HCV (genotype 1) = experiment: Phase II study of bavituximab with ribavirin in chronic HCV (genotype 1); settings: for patients with early virological response (EVR): Week 12
HCV and HIV = experiment: Phase Ib repeat-dose study in patients co-infected with chronic HCV and HIV; format: in vivo, human
Experimental: The primary objectives were to determine the safety, tolerability, PK profile, viral kinetics, MTD and/or MED. The study involved 16 scheduled visits over approximately 16 weeks. […] Dose escalation proceeded after all patients in the cohort had completed the first 4 weeks of dosing with no thrombotic events classified as serious adverse events (SAEs).
The median baseline HCV viral load was 6.76 log10 and the median baseline for HIV was 3.99 log10. Plasma viral loads of HCV and HIV were measured at specific time points during the study.

[2] = system: locally advanced or metastatic breast cancer; experiment: Phase II bavituximab plus paclitaxel and carboplatin in breast cancer; settings: with paclitaxel and carboplatin
From the text: This Phase II study utilized a Simon 2-stage design. […] The primary objective was to determine the overall response rate (ORR), defined as complete response (CR) plus partial response (PR), CR+PR. Secondary objectives included time to tumor progression, duration of response (DOR or DR), overall survival (OS) and safety.

β2GPI = molecular target: T1, β2GPI (Homo sapiens, UniProt P02749); experiment: Serum β2GPI levels after bavituximab, Phase Ib HCV study; format: in vivo; parameters: from tissue; host or cells: serum of human patients
T1 sequence (P02749 20-345): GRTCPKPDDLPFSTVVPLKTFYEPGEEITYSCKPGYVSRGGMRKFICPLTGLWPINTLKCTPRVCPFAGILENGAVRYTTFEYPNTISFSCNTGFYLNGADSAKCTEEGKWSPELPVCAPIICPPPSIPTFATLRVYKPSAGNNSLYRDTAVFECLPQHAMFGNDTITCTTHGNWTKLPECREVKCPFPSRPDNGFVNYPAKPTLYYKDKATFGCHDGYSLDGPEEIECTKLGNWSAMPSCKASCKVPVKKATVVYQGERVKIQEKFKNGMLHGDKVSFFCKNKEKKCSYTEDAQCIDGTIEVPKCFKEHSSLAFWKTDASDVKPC
Experimental: At the 6 mg/kg dose, β2GPI levels fell by 40% relative to the pretreatment levels, to approximately the lower limit of the normal range.

[3] = system: advanced hepatocellular carcinoma (HCC); experiment: Phase II bavituximab and sorafenib in HCC; format: in vivo, human
Experimental: A Phase II, single institution study of bavituximab and sorafenib in advanced hepatocellular carcinoma (HCC) was conducted. […] Secondary endpoints included overall survival (OS), disease specific survival, 4 month progression free survival, safety and response rate. The study accrued 38 patients.

[4] = Phase I dose escalation study of bavituximab monotherapy in refractory advanced solid tumors: PK, safety; settings: for AUCinf / Cmax / t1/2 / CL: Mean (CV %)
Experimental: Samples were collected from patients in the 0.1 and 0.3 mg/kg dose cohorts before the study, on days 0, 1, 2, 4, 7, 10, 14, and every 7 days from days 21 to 70. Samples were collected from patients in the 1 and 3 mg/kg dose cohorts before the study, on days 0, 1, 2, 4, 7, 14, 21, 22, 23, 25, and every 7 days from days 28 to 56.

[5] = system: previously untreated stage IV pancreatic cancer; experiment: Phase II (PPHM 1002) gemcitabine with or without bavituximab; format: in vivo, human; settings: with gemcitabine
Experimental: The primary objective was to compare the OS of patients among the treatment arms. Secondary objectives included comparing PFS, ORR, DR and safety.
Gemcitabine (1000 mg/m^2) was given on days 1, 8, and 15 of each 28-day cycle (4 weeks) until disease progression or unacceptable toxicities. A total of 70 patients were enrolled to the study. In general, the patient population had very extensive disease burden, which may have reduced the response in both arms.
The levels of pre-treatment functional β2GPI ranged from 82.5 to 343.2 μg/ml for all patients. For these 31 patients, the mean level of pre-treatment functional β2GPI (219.2 μg/ml) was consistent with the average reported in the literature.

[6] = functional β2GPI less than 200 μg/mL

bavituximab
mOS [1, 6]: 14.2 months
mOS ([1]; functional β2GPI ≥200 μg/mL): 17.0 months
viral load (hepatitis C virus (HCV); 3 mg/kg, throughout treatment and follow-up): consistent decreases in HCV
viral load (hepatitis C virus (HCV); doses of 0.3, 1 and 6 mg/kg): small decreases in viral load
accumulation / time-dependent PK differences (hepatitis C virus (HCV); all dose levels, day 0 and day 10): no evidence of accumulation of bavituximab or time-dependent PK differences
patients with early virological response (EVR) (HCV (genotype 1); 0.3 mg/kg weekly with ribavirin): 18%
patients with early virological response (EVR) (HCV (genotype 1); 3 mg/kg weekly with ribavirin): 9%
safety profile / patients reporting AEs (HCV (genotype 1); all with ribavirin): more favorable safety profile
viral reduction (HCV (genotype 1); plus ribavirin, 12 weeks): gradual viral reduction over 12 weeks was seen in some patients
accumulation / time-dependent PK differences (HCV and HIV; 0.3 to 6 mg/kg once weekly for 8 weeks): did not exhibit time-dependent PK differences or accumulation
maximum reduction in HCV and/or HIV viral load from baseline (HCV and HIV; several patients in each treatment group, all dose levels): ≥ 0.5 log10
median PFS [2]: 6.9 months
median duration of response (DOR) [2]: 3.7 months
CR ([2]; 46 patients): 10.9%
Grade 3 anemia ([2]; 46 patients): 10.9%
Grade 3 leukopenia ([2]; 46 patients): 23.9%
Grade 3 neutropenia ([2]; 46 patients): 19.6%
Grade 4 neutropenia ([2]; 46 patients): 26.1%
PR ([2]; 46 patients): 63.0%
objective response per RECIST ([2]; 46 patients): 73.9%
median OS ([2]; at study closure): 23.2 months
change of β2GPI levels (β2GPI; 1 mg/kg): virtually unchanged
time for β2GPI to return to pre-treatment level (β2GPI; 3 mg/kg): ≤ 24 h
time for β2GPI to recover to baseline (β2GPI; 6 mg/kg): 3 days
patients with increased infiltration of activated tumor-fighting T-cells (CD8) into the tumor microenvironment ([3]; after one cycle): Three of the six patients
anorexia, all grade ([3]; with sorafenib): 24%
diarrhea, all grade ([3]; with sorafenib): 32%
fatigue, all grade ([3]; with sorafenib): 26%
four month PFS ([3]; with sorafenib): 61%
median OS (mOS) ([3]; with sorafenib): 6.2 months
partial response ([3]; with sorafenib): Two patients achieved partial response
tolerability ([3]; with sorafenib): well tolerated
grade 4 or 5 adverse events ([3]; with sorafenib, 38 patients): no grade 4 or 5 adverse events recorded
PK linearity ([4]; 0.1 to 3 mg/kg): linear single-dose (day 0) and multiple-dose (days 21 or 42) PK characteristics
maximum tolerated dose ([4]; 0.1 to 3 mg/kg weekly): No maximum tolerated dose was reached
AUCinf ([4]; Day 0, 0.1 mg/kg, N=8): 113 (50.1) d μg/mL
Cmax ([4]; Day 0, 0.1 mg/kg, N=8): 2.11 (27.3) μg/mL
t1/2 ([4]; Day 0, 0.1 mg/kg, N=8): 43.9 (48.5) h
AUCinf ([4]; Day 0, 0.3 mg/kg, N=6): 241 (39.8) d μg/mL
Cmax ([4]; Day 0, 0.3 mg/kg, N=6): 5.13 (42.4) μg/mL
t1/2 ([4]; Day 0, 0.3 mg/kg, N=6): 39.8 (34.1) h
AUCinf ([4]; Day 0, 1.0 mg/kg, N=6): 966 (30.0) d μg/mL
Cmax ([4]; Day 0, 1.0 mg/kg, N=6): 16.6 (30.9) μg/mL
t1/2 ([4]; Day 0, 1.0 mg/kg, N=6): 40.3 (20.2) h
AUCinf ([4]; Day 0, 3.0 mg/kg, N=6): 3,017 (50.3) d μg/mL
Cmax ([4]; Day 0, 3.0 mg/kg, N=6): 56.4 µg/mL
t1/2 ([4]; Day 0, 3.0 mg/kg, N=6): 37.2 (34.5) h
AUCinf ([4]; Day 21, 1.0 mg/kg weekly, N=6): 1,053 (38.0) d μg/mL
CL ([4]; Day 21, 1.0 mg/kg weekly, N=6): 1.12 (52.1) mL/kg/d
Cmax ([4]; Day 21, 1.0 mg/kg weekly, N=6): 18.7 (31.8) μg/mL
t1/2 ([4]; Day 21, 1.0 mg/kg weekly, N=6): 46.8 (38.4) h
AUCinf ([4]; Day 21, 3.0 mg/kg weekly, N=4): 2,672 (63.4) d μg/mL
CL ([4]; Day 21, 3.0 mg/kg weekly, N=4): 1.51 (61.4) mL/kg/d
Cmax ([4]; Day 21, 3.0 mg/kg weekly, N=4): 59.6 (27.6) μg/mL
t1/2 ([4]; Day 21, 3.0 mg/kg weekly, N=4): 46.0 (44.4) h
time concentration remained above 2 μg/mL ([4]; dose of 1 mg/kg): 6 days
time concentration remained above 2 μg/mL ([4]; dose of 3 mg/kg): 7 days
mOS [5, 6]: 5.3 months
mOS ([5]; functional β2GPI ≥200 μg/mL): 7.4 months
